Measured values from patent publication US20050142137A1 (CURAGEN, published 2005).
Where a chain is given by its changes, count along the chain named.

Assays:
[1] = biological target: T1, recombinant human SLPI (Secretory leukocyte protease inhibitor), R&D Systems Cat#260-PI (human, UniProt P03973 25-131, biotinylated in the streptavidin-plate ELISAs and on SRBCs); test: ELISA, B cell supernatant on biotinylated SLPI, primary screen
T1 construct: Bought protein; also called biotinylated SLPI; B-Cur12
Procedure: Anti-SLPI antibody titers were determined by indirect ELISA. Briefly, biotinylated SLPI (0.5 μg/mL) was coated onto Sigma Streptavidin Clear Polystyrene 96 well ELISA plates for 30 minutes at room temperature (RT). The plates were then washed 4× by hand, then pat dried on paper towels. XenoMouse® animal sera from SLPI immunized, or naïve XenoMouse® animals, were titrated out to 6 wells, the last well left blank, in 1% no fat skim milk/PBS at 1:2 dilutions in duplicate from a 1:500 initial dilution. 50 μl was used for each well. The plates were incubated for 1 hour then washed four times. 50 μl of a goat anti-human IgG Fc-specific HRP-conjugated antibody (0.4 μg/mL) was added to each well and incubated for 1 hour at RT. The plates were washed five times with distilled water (dH₂O). The plates were developed with the addition of TMB for 30 minutes and the ELISA was stopped by the addition of 1 M phosphoric acid. The specific titers of individual XenoMouse® animals were determined from the optical density at 450 nm, Table 2. The titers represent the reciprocal dilution of the serum to either SLPI or streptavidin and therefore the higher the number, the greater the humoral immune response. Lymph nodes were harvested for XenoMax® antibody generation from immunized XenoMouse® animals with specific titers to SLPI versus streptavidin as shown in Table 4.
B cells from the harvested animals were cultured and those secreting SLPI-specific antibodies were isolated as described previously (Babcook et al., 1996 Proc. Natl. Acad. Sci. USA, 93:7843-7848). ELISA, performed as described above, was used to identify primary SLPI-specific wells from fifty plates cultured at 500 or 150 cells/well.

[2] = biological target: T2, SLPI of human tumour cell lines (endogenous; on cells or in conditioned media) (human, UniProt P03973 26-132); test: cell-based or functional assay
[3] = biological target: T1, recombinant human SLPI (Secretory …); test: limiting antigen ELISA, biotinylated SLPI coated at 50 ng/ml
Procedure: The limiting antigen analysis is a method that affinity ranks the antigen-specific antibodies in B cell culture supernatants. […] Each plate was washed 5 times with dH₂O, before 46 μl/well of 1% milk in PBS with 0.05% sodium azide was added, followed by 4 μl/well of B cell supernatant. After 22 hours at RT on a shaker, the plates were again washed 5 times with dH₂O. Goat anti-Human (Fc)-HRP at 1 μg/ml, 50 μl/well was added. After 1 hour at RT, the plates were again washed 5 times with dH₂O and 50 μl/well of TMB substrate was added. The reaction was stopped by the addition of 50 μl of 1M phosphoric acid to each well and the plates were read at wavelength 450 nm. 42C1, 43H7, 35F1 and 9G12 were chosen for further evaluation and cloning.

[4] = biological target: T2, SLPI of human tumour cell lines …; test: flow cytometry, 42C1 at 170 nM on OVCAR-8 cells
Procedure: (§1) FACS analysis of anti-SLPI antibody binding to OVCAR4, OVCAR-5, OVCAR-8, SK-OV-3, A2780, SF294, 786-0 cell lines was done as follows. Suspended cells were washed twice with ice-cold FACS buffer (SOURCE) and incubated with antibody 42C1 (170 nM/FACS buffer) for 1 hr then washed. Cells were incubated with a 1:500 dilution in FACS buffer of […] donkey anti-human IgG (H+L) (Jackson Immunolabs) for 30 minutes. Cells were washed and then fixed with 1% formaldehyde in PBS. Analysis was done using a FACS Calibur™ flow cytometer (Becton Dickinson, Frankin Lakes, N.J.).
(§2) 42C1 antibody bound SLPI on SLPI expressing ovarian cancer cell lines: OVCAR-4 (Geo Mean Ratio 37), OVCAR-5 (Geo Mean Ratio 10), and OVCAR-8 (Geo Mean Ratio 35) as compared to SLPI negative cell line 786-0 (Geo Mean Ratio 3).

[5] = biological target: T2, SLPI of human tumour cell lines …; test: flow cytometry, 42C1 at 170 nM on OVCAR-5 cells
Procedure: as §1, §2

[6] = biological target: T2, SLPI of human tumour cell lines …; test: flow cytometry, 42C1 at 170 nM on OVCAR-4 cells
Procedure: as §1, §2

T2 sequence (P03973 26-132 limits assumed): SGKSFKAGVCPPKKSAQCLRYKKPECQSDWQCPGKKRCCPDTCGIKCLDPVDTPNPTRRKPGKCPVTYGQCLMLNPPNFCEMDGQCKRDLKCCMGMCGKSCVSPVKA
T1 sequence (P03973 25-131): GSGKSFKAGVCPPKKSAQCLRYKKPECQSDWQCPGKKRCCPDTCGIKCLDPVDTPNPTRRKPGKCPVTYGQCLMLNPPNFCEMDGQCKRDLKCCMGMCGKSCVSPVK

B1: 35F1 (antibody, human IgG2, V domains shown)
VH: QVQLQESGPGLVKPSQTLSLTCTVSGGSIKSGDYYWSWVRQLPGKGLEWIGYIYYSGSTYYNPSLKSRVTISIDTSKNQFSLKLSSVTAADTAVYYCAREGSYYDSGGFDYWGQGTLVTVSS
VL: not shown
notes: Fully human, XenoMouse XMG2; also called #50; Cur12.1 PL35 F1
B1 was tested. Which “1* OD” value [1] did it give?
The value was 0.425 OD450.

And the “IC50 of growth inhibition of IGROV-1 cells, clonogenic assay” value [2]?
Its value is 163 nM.

And the “IC50 of growth inhibition of SW480 cells, clonogenic assay” value [2]?
Its value is 85 nM.

And the OD [3]?
The OD was 0.17 OD450.

B2: 42C1 (antibody, human IgG2, V domains shown)
VH: B1 VH with G27V, K30S, D33G, V39I, L42H, I73V, Y95F, S102E, S106E
VL: not shown
notes: Fully human, XenoMouse XMG2; also called #24; Cur12.1 PL42 C1
How did the “1* OD” value [1] turn out when B2 was run?
Its value is 3.23 OD450.

What about the “IC50 of growth inhibition of IGROV-1 cells, clonogenic assay” value [2] of the same binder?
Its value is 121 nM.

What about the “IC50 of growth inhibition of SW480 cells, clonogenic assay” value [2] of the same binder?
The value was 85 nM.

What about the OD [3] of the same binder?
Its OD is 3.01 OD450.

And the “Geo Mean Ratio” value [4]?
Its value is 35.

What about the “Geo Mean Ratio” value [5] of the same binder?
Its value is 10.

And the “Geo Mean Ratio” value [6]?
Its value is 37.

B3: 43H7 (antibody, human IgG2, V domains shown)
VH: QVQLVESGGGVVQPGRSLRLSCAASGFTFSTYGMHWVRQAPGKGLEWVTFIWYDGRNKYYADSVKGRFTVSRDNSKNTLYLQMNSLRAEDTAVYYCARGDDYGDYHPHYYYYGLDVWGQGTTVTVSS
VL: DIVMTQTPLSLSVTPGQPASISCKSSQSLLDSDGKTYLYWYLQKPGQPPQLLIYEVSNRFSGVPDRFSGSGSGTDFTLKISRVEAEDVAYYYCMQSIQLPWTFGQGTKVEIK
notes: Fully human, XenoMouse XMG2; also called #11; Cur12.1 PL43 H7
What does the source list for B3?
1* OD [1]: 3.37 OD450; OD [3]: 1.19 OD450

B4: 9G12 (antibody, human IgG2, V domains shown)
VH: B3 VH with T31G, T49A, D54N, R56N, N57D, K58N, A61T, V70I, L114M
VL: B3 VL with V88I, A89G, Y90V, M94L
notes: Fully human, XenoMouse XMG2; also called #36; Cur12.1 PL09 G12
With B4 as the binder, how does the “1* OD” value [1] read?
Its value is 2 OD450.

And the OD [3]?
Its OD is 0.6 OD450.
